In PMC11053944, “FRET Assays for the Identification of C. albicans HSP90-Sba1 and Human HSP90α-p23 Binding Inhibitors” (Pharmaceuticals, 2024):
“And” between values parts separate entries of the source, which are not always exact repeats. Equal entries are not always repeated.

Legend:
[1] = target: the molecule itself; assay: cross-linking; glutaraldehyde cross-linking and SDS-PAGE (Coomassie): 10 µM HSP90 with equimolar Sba1 or mScarlet-I, reaction buffer, 15 min 30 °C, 5 mM ATP or 2 mM AMP-PNP; cross-linking 2 min at room temperature
[2] = target: T1, C. albicans HSP90E36A-mNeonGreen (C. albicans, UniProt P46598 1-707, E36A); assay: FRET or BRET; Kd determination, C. albicans: 200 nM HSP90E36A-mNeonGreen, Sba1-mScarlet-I 0-3000 nM (lowest non-zero 10 nM), reaction buffer with 5 mM ATP, 30 °C (text; the legend of Figure 2 says 37 °C), measured after 180 min; mNeonGreen control subtracted; nonlinear regression; conditions: both partners purified
T1 construct: HSP90 of C. albicans, UniProtKB P46598, ATP-hydrolysis-defective mutant E36A; As m1 with E36A; GGGGS linker before mNeonGreen; also called His6-HSP90E36A-mNeonGreen; source: E. coli BL21(DE3), purified (Ni-NTA, gel filtration); not shown: mNeonGreen, C-terminal, kept

[3] = target: T2, C. albicans HSP90-mNeonGreen (C. albicans, UniProt P46598 1-707); assay: FRET or BRET; competition, C. albicans: 1 µM HSP90-mNeonGreen and 1 µM Sba1-mScarlet-I with unlabeled Sba1 0-25,000 nM (lowest non-zero 12 nM), reaction buffer with 5 mM ATP; relative IC50 (four parameters), Ki by One Site - Fit Ki; conditions: both partners purified
T2 construct: HSP90 of C. albicans, UniProtKB P46598; pET-11d: N-terminal His6, FXa site, XhoI site, protein, KpnI site; mNeonGreen joined to the C-terminus of HSP90 by a flexible linker GGGGS; No cleavage of the His6 tag is told; also called His6-HSP90-mNeonGreen; source: E. coli BL21(DE3), purified (Ni-NTA, gel filtration); not shown: mNeonGreen, C-terminal, kept

human HSP90α-mNeonGreen = target: T3, human HSP90α-mNeonGreen (human, UniProt P07900 1-732); assay: FRET or BRET; competition, human: 1 µM HSP90α-mNeonGreen and 1 µM p23-mScarlet-I with unlabeled p23 0-50,000 nM (lowest non-zero 23 nM), reaction buffer with 5 mM ATP; relative IC50 (four parameters), Ki by One Site - Fit Ki; conditions: both partners purified
T3 construct: human HSP90α, UniProt P07900; DNA from a plasmid of a previous work of the lab; Cloned by restriction-ligation on the basis of the C. albicans FRET plasmids (His6, FXa site, protein, mNeonGreen at the C-terminus); also called His6-HSP90α-mNeonGreen; source: E. coli Rosetta2(DE3) pLysS, purified (Ni-NTA, gel filtration); not shown: mNeonGreen, C-terminal, kept

[4] = target: T4, human HSP90αE47A-mNeonGreen (human, UniProt P07900 1-732, E47A); assay: FRET or BRET; Kd determination, human: 200 nM HSP90αE47A-mNeonGreen, p23-mScarlet-I 0-3000 nM (lowest non-zero 10 nM), reaction buffer with 5 mM ATP, 37 °C, measured after 180 min; mNeonGreen control subtracted; nonlinear regression; conditions: both partners purified
T4 construct: human HSP90α, UniProt P07900, ATP-hydrolysis-defective mutant E47A; As m3 with E47A; also called His6-HSP90αE47A-mNeonGreen; source: E. coli Rosetta2(DE3) pLysS, purified (Ni-NTA, gel filtration); not shown: mNeonGreen, C-terminal, kept

B1: C. albicans HSP90 (without fluorescent protein) (natural protein)
chain: not shown
notes: HSP90 of C. albicans, UniProtKB P46598; Printed mass of the monomer 82.5 kDa, dimer 165 kDa; N-terminal His6 followed by an FXa site; also called His6-HSP90; source: E. coli BL21(DE3), purified (Ni-NTA, gel filtration)
In the case of B1, the “stoichiometry N” value [1] is reported as 2.

B2: C. albicans Sba1-mScarlet-I (natural protein, UniProt A0A1D8PQ94 1-221, looked up)
chain: MSSTTTQTPTVLWAQRSSEDDAAKNIIYLTIQISDPIDLKIDLKSDHLIIDSKSNDSVYSSIDYHLQIDFFKEIDPDQSKINTENGSHIFMILRKKDQQEEYWPRLTKEKLKYHYIKTDFDKWVDEDEQDEVKDDPNDFGGPGGPGGAMDFSQMLSGMGGLGGAGGSGGPGGVDLSALASQLGQAGGAGGAAGLDGEEGEEGEAEAKEAQEESNTTATEKE
notes: Sba1 of C. albicans, UniProtKB A0A1D8PQ94; mScarlet-I fused to the 3' end of Sba1, analogously to HSP90-mNeonGreen (there with a GGGGS linker); N-terminal His6 followed by an FXa site; also called His6-Sba1-mScarlet-I; source: E. coli BL21(DE3), purified (Ni-NTA, gel filtration); not shown: mScarlet-I, C-terminal, kept
For B2, the Kd [2] was 100 nM.

B3: C. albicans Sba1 (unlabeled) (natural protein, UniProt A0A1D8PQ94 1-221, looked up)
chain: B2 chain
notes: Sba1 of C. albicans, UniProtKB A0A1D8PQ94; N-terminal His6 followed by an FXa site; also called His6-Sba1; unlabeled Sba1; source: E. coli BL21(DE3), purified (Ni-NTA, gel filtration)
B3 showed an IC50 [3] of 1950 nM and a Ki [3] of 100 nM.

B4: human p23 (unlabeled) (natural protein, UniProt Q15185 1-160, looked up)
chain: MQPASAKWYDRRDYVFIEFCVEDSKDVNVNFEKSKLTFSCLGGSDNFKHLNEIDLFHCIDPNDSKHKRTDRSILCCLRKGESGQSWPRLTKERAKLNWLSVDFNNWKDWEDDSDEDMSNFDRFSEMMNNMGGDEDVDLPEVDGADDDSQDSDDEKMPDLE
notes: human p23, UniProt Q15185; N-terminal His6 followed by an FXa site; also called His6-p23; unlabeled p23; source: E. coli Rosetta2(DE3) pLysS, purified (Ni-NTA, gel filtration)
B4 showed an IC50 (human HSP90α-mNeonGreen) of 1420 nM and a Ki (human HSP90α-mNeonGreen) of 100 nM.

B5: human p23-mScarlet-I (natural protein, UniProt Q15185 1-160, looked up)
chain: B4 chain
notes: human p23, UniProt Q15185; Cloned by restriction-ligation on the basis of the C. albicans FRET plasmids (His6, FXa site, protein, mScarlet-I at the C-terminus); also called His6-p23-mScarlet-I; source: E. coli Rosetta2(DE3) pLysS, purified (Ni-NTA, gel filtration); not shown: mScarlet-I, C-terminal, kept
For B5, the Kd [4] was 210 nM and 220 nM.
